According to US20140213513A1 (Sanofi, priority 2012, published 2014):
*1 amine or outer side, *2 acyl side, *3 side chain or, on linkers, in order; H or OH if unused. Where no end group is shown, it is not given here. Side-chain parts run from the residue outwards. [ ]: non-standard residue; d: D form. The star is where a group is joined. γGlu = O=C(O)[C@H](CCC(=O)[*:2])N[*:1]; Palmitoyl = CCCCCCCCCCCCCCCC(=O)*; Aib = CC(C)(N)C(=O)O

Experiments:
Assay in all cases: cell-based or functional assay
[1] = target: human GLP-1 receptor (human, UniProt P43220 24-463)
[2] = target: T1, human GIP receptor (human, UniProt P48546 22-466)
T1 sequence (looked up): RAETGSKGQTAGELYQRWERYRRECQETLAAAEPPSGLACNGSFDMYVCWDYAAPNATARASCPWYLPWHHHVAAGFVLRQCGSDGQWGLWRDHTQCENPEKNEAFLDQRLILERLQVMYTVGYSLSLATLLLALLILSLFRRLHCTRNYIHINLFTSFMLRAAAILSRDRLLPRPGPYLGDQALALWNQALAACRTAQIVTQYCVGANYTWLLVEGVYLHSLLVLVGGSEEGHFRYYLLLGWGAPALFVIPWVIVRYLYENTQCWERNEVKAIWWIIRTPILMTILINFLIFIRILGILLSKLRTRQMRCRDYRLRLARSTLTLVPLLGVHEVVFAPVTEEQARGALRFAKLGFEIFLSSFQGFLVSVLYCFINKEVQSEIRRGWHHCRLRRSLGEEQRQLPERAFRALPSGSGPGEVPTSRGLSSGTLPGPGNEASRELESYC

[3] = target: human glucagon receptor (human, UniProt P47871 26-477)
human glucagon receptor, sequence (P47871 26-477): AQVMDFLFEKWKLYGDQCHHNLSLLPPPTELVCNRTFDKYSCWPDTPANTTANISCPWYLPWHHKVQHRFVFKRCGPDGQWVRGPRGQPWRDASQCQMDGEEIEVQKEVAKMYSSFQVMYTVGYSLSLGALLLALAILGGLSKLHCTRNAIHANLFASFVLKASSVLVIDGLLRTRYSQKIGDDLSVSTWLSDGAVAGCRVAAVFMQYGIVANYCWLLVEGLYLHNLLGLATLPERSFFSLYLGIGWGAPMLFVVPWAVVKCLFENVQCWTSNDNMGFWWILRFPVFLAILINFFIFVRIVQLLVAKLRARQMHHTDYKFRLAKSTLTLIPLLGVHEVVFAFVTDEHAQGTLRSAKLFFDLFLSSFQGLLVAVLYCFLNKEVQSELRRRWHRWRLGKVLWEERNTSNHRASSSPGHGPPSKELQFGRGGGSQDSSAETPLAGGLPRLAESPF

B1: exendin-4 peptide analogue SEQ ID NO: 24 (peptide)
peptide: Y[Aib]QGTFTSDLSIQK([γGlu-Palmitoyl])EKRAV[Aib]LFIEWLKAGGPSSGAPPPS-NH2
modifications: N-terminus assumed
SMILES: CCCCCCCCCCCCCCCC(=O)N[C@@H](CCC(=O)NCCCC[C@H](NC(=O)[C@H](CCC(N)=O)NC(=O)[C@@H](NC(=O)[C@H](CO)NC(=O)[C@H](CC(C)C)NC(=O)[C@H](CC(=O)O)NC(=O)[C@H](CO)NC(=O)[C@@H](NC(=O)[C@H](Cc1ccccc1)NC(=O)[C@@H](NC(=O)CNC(=O)[C@H](CCC(N)=O)NC(=O)C(C)(C)NC(=O)[C@@H](N)Cc1ccc(O)cc1)[C@@H](C)O)[C@@H](C)O)[C@@H](C)CC)C(=O)N[C@@H](CCC(=O)O)C(=O)N[C@@H](CCCCN)C(=O)N[C@@H](CCCNC(=N)N)C(=O)N[C@@H](C)C(=O)N[C@H](C(=O)NC(C)(C)C(=O)N[C@@H](CC(C)C)C(=O)N[C@@H](Cc1ccccc1)C(=O)N[C@H](C(=O)N[C@@H](CCC(=O)O)C(=O)N[C@@H](Cc1c[nH]c2ccccc12)C(=O)N[C@@H](CC(C)C)C(=O)N[C@@H](CCCCN)C(=O)N[C@@H](C)C(=O)NCC(=O)NCC(=O)N1CCC[C@H]1C(=O)N[C@@H](CO)C(=O)N[C@@H](CO)C(=O)NCC(=O)N[C@@H](C)C(=O)N1CCC[C@H]1C(=O)N1CCC[C@H]1C(=O)N1CCC[C@H]1C(=O)N[C@@H](CO)C(N)=O)[C@@H](C)CC)C(C)C)C(=O)O
For B1, the “EC50 hGLP-1 R” value [1] was 0.0192 nM, the “EC50 hGIP R” value [2] was 0.0104 nM and the “EC50 hGLUC R” value [3] was 0.284 nM.

B2: exendin-4 peptide analogue SEQ ID NO: 25 (peptide)
peptide: Y[Aib]QGTFTSDLSIQK(Palmitoyl)EKRAV[Aib]LFIEWLKAGGPSSGAPPPS-NH2
modifications: N-terminus assumed
SMILES: CCCCCCCCCCCCCCCC(=O)NCCCC[C@H](NC(=O)[C@H](CCC(N)=O)NC(=O)[C@@H](NC(=O)[C@H](CO)NC(=O)[C@H](CC(C)C)NC(=O)[C@H](CC(=O)O)NC(=O)[C@H](CO)NC(=O)[C@@H](NC(=O)[C@H](Cc1ccccc1)NC(=O)[C@@H](NC(=O)CNC(=O)[C@H](CCC(N)=O)NC(=O)C(C)(C)NC(=O)[C@@H](N)Cc1ccc(O)cc1)[C@@H](C)O)[C@@H](C)O)[C@@H](C)CC)C(=O)N[C@@H](CCC(=O)O)C(=O)N[C@@H](CCCCN)C(=O)N[C@@H](CCCNC(=N)N)C(=O)N[C@@H](C)C(=O)N[C@H](C(=O)NC(C)(C)C(=O)N[C@@H](CC(C)C)C(=O)N[C@@H](Cc1ccccc1)C(=O)N[C@H](C(=O)N[C@@H](CCC(=O)O)C(=O)N[C@@H](Cc1c[nH]c2ccccc12)C(=O)N[C@@H](CC(C)C)C(=O)N[C@@H](CCCCN)C(=O)N[C@@H](C)C(=O)NCC(=O)NCC(=O)N1CCC[C@H]1C(=O)N[C@@H](CO)C(=O)N[C@@H](CO)C(=O)NCC(=O)N[C@@H](C)C(=O)N1CCC[C@H]1C(=O)N1CCC[C@H]1C(=O)N1CCC[C@H]1C(=O)N[C@@H](CO)C(N)=O)[C@@H](C)CC)C(C)C
For B2, the “EC50 hGLP-1 R” value [1] was 0.037 nM, the “EC50 hGIP R” value [2] was 0.176 nM and the “EC50 hGLUC R” value [3] was 2.03 nM.
